In patent US20040048243A1, “Methods and compositions for in vitro targeting” (priority 2003, published 2004):
No end group written: not given here.

How the values were obtained:
[1] = target: T1, CD13 (Sus scrofa, UniProt P15145); assay: Peptide competition of angiostatin binding to CD13; conditions: up to 500 μg of peptide; not shown
T1 construct: purchased Sigma, St Louis, Mo; L-9776
T1 sequence (P15145 2-963 limits assumed): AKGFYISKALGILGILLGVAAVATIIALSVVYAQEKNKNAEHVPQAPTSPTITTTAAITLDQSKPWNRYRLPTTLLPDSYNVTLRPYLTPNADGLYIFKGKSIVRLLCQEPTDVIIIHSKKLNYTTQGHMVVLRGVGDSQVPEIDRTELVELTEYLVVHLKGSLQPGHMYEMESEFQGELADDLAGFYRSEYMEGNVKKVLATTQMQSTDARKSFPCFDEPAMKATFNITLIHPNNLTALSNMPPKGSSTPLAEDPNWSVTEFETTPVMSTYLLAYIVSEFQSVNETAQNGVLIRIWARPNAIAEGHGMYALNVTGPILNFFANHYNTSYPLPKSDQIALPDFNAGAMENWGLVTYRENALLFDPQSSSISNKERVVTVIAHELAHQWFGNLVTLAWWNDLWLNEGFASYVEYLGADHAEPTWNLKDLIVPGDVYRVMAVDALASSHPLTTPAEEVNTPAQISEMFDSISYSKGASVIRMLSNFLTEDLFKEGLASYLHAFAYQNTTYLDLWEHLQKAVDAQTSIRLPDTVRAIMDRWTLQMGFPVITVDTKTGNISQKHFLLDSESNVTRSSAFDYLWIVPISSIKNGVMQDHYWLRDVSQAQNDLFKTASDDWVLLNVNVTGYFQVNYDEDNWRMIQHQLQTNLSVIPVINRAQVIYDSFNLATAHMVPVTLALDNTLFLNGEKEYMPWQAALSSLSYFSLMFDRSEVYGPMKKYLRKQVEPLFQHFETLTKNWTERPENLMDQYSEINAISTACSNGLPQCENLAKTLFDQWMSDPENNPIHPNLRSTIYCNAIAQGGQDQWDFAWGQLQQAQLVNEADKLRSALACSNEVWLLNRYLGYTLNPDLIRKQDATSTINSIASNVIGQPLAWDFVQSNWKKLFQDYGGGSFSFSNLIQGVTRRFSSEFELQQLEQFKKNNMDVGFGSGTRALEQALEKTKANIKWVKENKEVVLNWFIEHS
Procedure: (§1) To assess protein-protein interactions, 100 ng/well of protein was coated in triplicate in 96-well plates. The plates were dried at 37° C., blocked with PBS and 3% BSA, and incubated with 10 μg/ml of rhAngiostatin in PBS+1% BSA for three hours at RT. The wells were washed three times with PBS, 3% BSA, 0.01% Tween 20 before incubation with anti-rhAngiostatin antibody (R&D Systems, Inc #AF226) at 1 μg/ml for 1 hour at RT. The wells were then washed three times with PBS, 3% BSA, 0.01% Tween 20 and incubated with […] anti-goat antibody. After washing 3 times with PBS, 0.01% Tween 20 and once with PBS, the wells were developed with p-nitrophenyl phosphate. Binding of alkaline phosphate conjugate was detected colorimetrically at […]. using an ELISA microplate reader.
Binding of angiostatin to CD13 was competitive with the NGR peptide (Burg et al., 1999) in a dose-dependent manner (not shown). Control experiments were run with the CARAC peptide (SEQ ID NO: 169) (not shown). Binding of angiostatin to CD13 was inhibited by more than 50% by 0.5 μg of NGR peptide, while binding was unaffected by up to 500 μg of CARAC peptide (SEQ ID NO: 169) (not shown).

[2] = test system: MDA-MB435 cells; assay: Inhibition of RGD-4C-β-gal phage transduction by synthetic peptides; assay type: cell-based, human; conditions: target cells pre-incubated with synthetic peptide; dose-dependent
Procedure: (§2) In the peptide inhibition experiments, MDA-MB435 cells were cultured on 12-well plates and then incubated with 10 μg of RGD-4C peptide (SEQ ID NO: 166) or control peptides (CARAC, SEQ ID NO: 169 or CKDRFERC, SEQ ID. NO: 59) in normal growth media for 30 minutes. KS1767 cells were grown on 12-well plates and then incubated with 40 μg CTTHWGFTLC (SEQ D NO: 167) or control peptides in normal growth media for 30 minutes. After this the growth media were replaced by 500 μl of MEM containing 2% FCS and 5×10^10 transducing units (TU) of either RGD-4C-β-gal, HWGF-β-gal, or control fd-β-gal phage. Phage vectors were incubated on peptide-treated cells (three hours at 37° C., 5% CO2) followed by a media change to MEM plus 10% FCS. Transduced cells were then maintained in a cell incubator for 72 hours (37° C., 5% CO2).
(§3) In the peptide inhibition assays, β-gal activity in cell lysates was detected by the Galacto-Star® chemiluminescent reporter gene system (Tropix, Bedford, Mass.) according to the manufacturer's protocol. […] Cells were analyzed for GFP gene expression at 72 hours post infection. For GFP detection, cells were analyzed by fluorescence activated cell sorting (FACS) in a FACScan (Becton-Dickinson, San Jose, Calif.) or counted and photographed under a fluorescence microscope (Nikon).

[3] = test system: KS1767 cells; assay: Inhibition of HWGF-β-gal phage transduction by synthetic peptides; assay type: cell-based, human; conditions: target cells pre-incubated with synthetic peptide; dose-dependent
Procedure: as §2, §3

[4] = test system: tumor-associated antigens in tissue sections from bone marrow metastasis; assay: Immunohistological staining with antibodies against peptide C; assay type: binding, human; conditions: antibodies pre-incubated with GST-peptide C
Procedure: GST-fusion proteins containing the peptide sequence from patient C were coated on multi-well plates. After incubating the plates with the patient's serum, the plates were washed. The bound IgG antibodies were eluted with 50 μl of 0.1 M glycine buffer, pH 2.2, neutralized by addition of 10 μl 1 M Tris pH 9.0, and dialyzed in PBS overnight followed by concentration of the antibody using Centricon-30 (Millipore) filters. The purified antibody (500 μg) was coupled to biotin according to the manufacturer's instructions (Vector). The biotinylated antibody was analyzed by SDS-gel electrophoresis.
Paraffin sections from patient C were stained with purified biotinylated antibodies and peptide antibodies by immunoperoxidase detection using the Dako antigen retrieval kit and DAB as a substrate. All of the sections (4 μm) were counter-stained with hematoxylin. The biotinylated immunopurified antibodies were used at a dilution of 1:100. Peptide C antibodies and purified pre-immune antibodies were used at 0.01 μg/μl. For the inhibition staining, peptide C antibodies were pre-incubated for 30 minutes at room temperature with the GST-peptide C (500μg) prior to staining. Peptide antibodies were generated in rabbits and purified using a T-gel immunoglobulin purification kit and protein G column (Pierce).

[5] = target: T2, CD13 (Aminopeptidase N) (Sus scrofa, UniProt P15145); assay: Protein-protein interaction ELISA: rhAngiostatin binding to coated protein
T2 construct: purchased Sigma, St Louis, Mo; L-9776
T2 sequence (P15145 1-963): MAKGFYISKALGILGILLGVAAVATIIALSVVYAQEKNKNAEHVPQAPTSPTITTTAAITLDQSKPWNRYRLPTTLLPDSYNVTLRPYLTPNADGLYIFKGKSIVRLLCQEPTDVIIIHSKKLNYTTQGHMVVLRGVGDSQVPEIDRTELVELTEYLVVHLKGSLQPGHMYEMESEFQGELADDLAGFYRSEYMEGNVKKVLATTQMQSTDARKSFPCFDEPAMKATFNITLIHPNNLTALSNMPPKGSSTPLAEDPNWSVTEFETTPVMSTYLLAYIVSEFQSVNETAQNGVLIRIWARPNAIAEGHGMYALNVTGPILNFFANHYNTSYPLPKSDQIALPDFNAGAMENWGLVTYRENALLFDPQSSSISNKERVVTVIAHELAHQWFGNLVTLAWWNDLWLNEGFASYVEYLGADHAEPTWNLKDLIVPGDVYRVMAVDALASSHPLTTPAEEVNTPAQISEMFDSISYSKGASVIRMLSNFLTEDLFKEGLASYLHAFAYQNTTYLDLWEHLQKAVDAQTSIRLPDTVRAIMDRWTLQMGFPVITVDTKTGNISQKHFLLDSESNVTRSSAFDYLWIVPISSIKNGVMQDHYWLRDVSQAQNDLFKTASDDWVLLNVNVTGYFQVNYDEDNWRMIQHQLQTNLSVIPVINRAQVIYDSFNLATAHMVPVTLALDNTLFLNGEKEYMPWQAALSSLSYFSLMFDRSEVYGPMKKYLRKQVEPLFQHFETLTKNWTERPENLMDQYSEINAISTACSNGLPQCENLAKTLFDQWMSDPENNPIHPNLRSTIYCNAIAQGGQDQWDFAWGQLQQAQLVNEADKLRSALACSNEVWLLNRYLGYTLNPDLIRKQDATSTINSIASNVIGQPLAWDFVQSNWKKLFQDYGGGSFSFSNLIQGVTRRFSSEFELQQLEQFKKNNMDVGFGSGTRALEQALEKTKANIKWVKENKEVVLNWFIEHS
Procedure: as §1

[6] = test system: COL IV (collagen IV); assay: as above
Procedure: as §1

[7] = target: FN (fibronectin) (Homo sapiens, UniProt P02751); assay: as above
Chain of FN (fibronectin) (P02751 32-2477, species assumed): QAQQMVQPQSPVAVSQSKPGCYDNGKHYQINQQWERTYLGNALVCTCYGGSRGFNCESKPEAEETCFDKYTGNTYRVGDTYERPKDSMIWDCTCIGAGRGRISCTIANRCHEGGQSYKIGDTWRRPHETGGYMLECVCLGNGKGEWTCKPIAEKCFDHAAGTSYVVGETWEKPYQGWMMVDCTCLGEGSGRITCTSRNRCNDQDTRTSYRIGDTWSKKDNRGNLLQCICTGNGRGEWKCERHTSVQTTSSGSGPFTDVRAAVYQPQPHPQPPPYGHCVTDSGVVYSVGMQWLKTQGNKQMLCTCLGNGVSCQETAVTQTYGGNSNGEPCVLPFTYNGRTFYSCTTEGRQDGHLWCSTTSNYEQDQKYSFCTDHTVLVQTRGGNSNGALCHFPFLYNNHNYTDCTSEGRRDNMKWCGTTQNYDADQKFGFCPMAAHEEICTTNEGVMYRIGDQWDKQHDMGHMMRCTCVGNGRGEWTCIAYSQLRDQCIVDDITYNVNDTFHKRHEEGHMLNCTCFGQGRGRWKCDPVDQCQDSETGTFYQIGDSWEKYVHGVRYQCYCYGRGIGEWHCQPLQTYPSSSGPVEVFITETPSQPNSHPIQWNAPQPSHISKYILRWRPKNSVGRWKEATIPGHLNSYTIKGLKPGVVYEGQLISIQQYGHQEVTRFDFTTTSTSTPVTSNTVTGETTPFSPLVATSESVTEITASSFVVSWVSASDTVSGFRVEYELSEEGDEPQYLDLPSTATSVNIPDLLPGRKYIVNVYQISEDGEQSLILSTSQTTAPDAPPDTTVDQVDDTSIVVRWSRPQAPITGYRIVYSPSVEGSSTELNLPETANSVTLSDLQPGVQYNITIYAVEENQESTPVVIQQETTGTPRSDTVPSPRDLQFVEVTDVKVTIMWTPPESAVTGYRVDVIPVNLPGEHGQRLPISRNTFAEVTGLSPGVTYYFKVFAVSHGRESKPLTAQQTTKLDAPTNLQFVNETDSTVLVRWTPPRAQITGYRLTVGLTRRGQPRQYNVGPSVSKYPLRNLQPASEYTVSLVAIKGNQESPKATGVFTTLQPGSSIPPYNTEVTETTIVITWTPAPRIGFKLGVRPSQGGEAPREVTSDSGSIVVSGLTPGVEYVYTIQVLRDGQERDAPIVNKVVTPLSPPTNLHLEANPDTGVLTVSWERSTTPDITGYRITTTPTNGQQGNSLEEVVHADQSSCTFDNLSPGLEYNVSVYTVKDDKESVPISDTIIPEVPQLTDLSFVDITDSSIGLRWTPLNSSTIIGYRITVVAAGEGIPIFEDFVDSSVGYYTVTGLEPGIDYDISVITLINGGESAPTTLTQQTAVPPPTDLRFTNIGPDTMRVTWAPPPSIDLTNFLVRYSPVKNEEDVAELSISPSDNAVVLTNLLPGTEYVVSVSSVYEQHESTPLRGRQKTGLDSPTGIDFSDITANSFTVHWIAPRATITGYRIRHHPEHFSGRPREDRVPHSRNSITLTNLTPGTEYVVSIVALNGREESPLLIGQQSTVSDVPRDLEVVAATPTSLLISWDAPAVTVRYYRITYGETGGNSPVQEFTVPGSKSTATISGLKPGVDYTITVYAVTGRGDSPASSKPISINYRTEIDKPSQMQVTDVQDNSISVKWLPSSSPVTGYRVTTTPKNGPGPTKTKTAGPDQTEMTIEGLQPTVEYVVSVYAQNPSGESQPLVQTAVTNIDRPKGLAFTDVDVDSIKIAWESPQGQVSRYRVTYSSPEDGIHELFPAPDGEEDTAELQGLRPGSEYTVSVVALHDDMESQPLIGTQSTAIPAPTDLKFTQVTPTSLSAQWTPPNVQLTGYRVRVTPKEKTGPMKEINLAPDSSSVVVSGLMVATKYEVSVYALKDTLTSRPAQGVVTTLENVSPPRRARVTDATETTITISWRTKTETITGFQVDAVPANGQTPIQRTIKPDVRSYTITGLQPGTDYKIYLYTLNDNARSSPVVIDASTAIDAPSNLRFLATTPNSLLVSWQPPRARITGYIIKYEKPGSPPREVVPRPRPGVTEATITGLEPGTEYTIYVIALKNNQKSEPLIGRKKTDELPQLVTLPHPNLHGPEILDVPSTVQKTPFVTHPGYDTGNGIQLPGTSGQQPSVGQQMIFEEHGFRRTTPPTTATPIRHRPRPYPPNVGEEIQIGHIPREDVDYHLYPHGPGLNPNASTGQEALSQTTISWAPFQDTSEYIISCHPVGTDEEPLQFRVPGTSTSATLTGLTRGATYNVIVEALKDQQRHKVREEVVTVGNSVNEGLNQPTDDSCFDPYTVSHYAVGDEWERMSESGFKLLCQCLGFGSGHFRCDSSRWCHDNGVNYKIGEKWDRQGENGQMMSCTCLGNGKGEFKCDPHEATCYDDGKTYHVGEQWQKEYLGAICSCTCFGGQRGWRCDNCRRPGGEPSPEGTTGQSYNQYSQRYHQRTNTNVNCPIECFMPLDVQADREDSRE
Procedure: as §1

[8] = target: T3, HGF (hepatocyte growth factor) (Homo sapiens, UniProt P14210); assay: as above
T3 construct: purchased Calbiochem, San Diego, Calif; 375228
T3 sequence (P14210 32-728): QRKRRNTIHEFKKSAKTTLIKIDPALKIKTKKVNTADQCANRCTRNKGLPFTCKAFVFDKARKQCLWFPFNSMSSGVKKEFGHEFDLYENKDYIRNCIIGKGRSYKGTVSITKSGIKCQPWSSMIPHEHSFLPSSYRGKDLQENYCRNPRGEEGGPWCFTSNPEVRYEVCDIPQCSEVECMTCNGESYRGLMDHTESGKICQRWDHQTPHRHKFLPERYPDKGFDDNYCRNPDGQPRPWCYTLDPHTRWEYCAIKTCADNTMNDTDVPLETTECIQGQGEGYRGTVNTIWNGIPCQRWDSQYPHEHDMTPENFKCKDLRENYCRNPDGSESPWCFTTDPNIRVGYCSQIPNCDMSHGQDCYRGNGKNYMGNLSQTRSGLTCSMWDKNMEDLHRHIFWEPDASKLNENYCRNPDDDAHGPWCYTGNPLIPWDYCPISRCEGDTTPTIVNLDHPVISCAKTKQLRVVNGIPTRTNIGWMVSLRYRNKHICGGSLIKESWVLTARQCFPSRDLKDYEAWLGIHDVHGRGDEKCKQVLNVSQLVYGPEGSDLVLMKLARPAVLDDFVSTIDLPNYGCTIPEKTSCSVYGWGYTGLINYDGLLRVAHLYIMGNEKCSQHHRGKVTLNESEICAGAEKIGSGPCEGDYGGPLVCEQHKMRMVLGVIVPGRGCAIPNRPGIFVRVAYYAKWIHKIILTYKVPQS
Procedure: as §1

[9] = test system: LN (laminin); assay: as above
Procedure: as §1

[10] = target: T4, Thrombospondin 1 (TSP-1) (Homo sapiens, UniProt P07996); assay: as above; conditions: TSP-1, positive control
T4 construct: purchased Calbiochem, San Diego, Calif; 605225
T4 sequence (P07996 19-1170): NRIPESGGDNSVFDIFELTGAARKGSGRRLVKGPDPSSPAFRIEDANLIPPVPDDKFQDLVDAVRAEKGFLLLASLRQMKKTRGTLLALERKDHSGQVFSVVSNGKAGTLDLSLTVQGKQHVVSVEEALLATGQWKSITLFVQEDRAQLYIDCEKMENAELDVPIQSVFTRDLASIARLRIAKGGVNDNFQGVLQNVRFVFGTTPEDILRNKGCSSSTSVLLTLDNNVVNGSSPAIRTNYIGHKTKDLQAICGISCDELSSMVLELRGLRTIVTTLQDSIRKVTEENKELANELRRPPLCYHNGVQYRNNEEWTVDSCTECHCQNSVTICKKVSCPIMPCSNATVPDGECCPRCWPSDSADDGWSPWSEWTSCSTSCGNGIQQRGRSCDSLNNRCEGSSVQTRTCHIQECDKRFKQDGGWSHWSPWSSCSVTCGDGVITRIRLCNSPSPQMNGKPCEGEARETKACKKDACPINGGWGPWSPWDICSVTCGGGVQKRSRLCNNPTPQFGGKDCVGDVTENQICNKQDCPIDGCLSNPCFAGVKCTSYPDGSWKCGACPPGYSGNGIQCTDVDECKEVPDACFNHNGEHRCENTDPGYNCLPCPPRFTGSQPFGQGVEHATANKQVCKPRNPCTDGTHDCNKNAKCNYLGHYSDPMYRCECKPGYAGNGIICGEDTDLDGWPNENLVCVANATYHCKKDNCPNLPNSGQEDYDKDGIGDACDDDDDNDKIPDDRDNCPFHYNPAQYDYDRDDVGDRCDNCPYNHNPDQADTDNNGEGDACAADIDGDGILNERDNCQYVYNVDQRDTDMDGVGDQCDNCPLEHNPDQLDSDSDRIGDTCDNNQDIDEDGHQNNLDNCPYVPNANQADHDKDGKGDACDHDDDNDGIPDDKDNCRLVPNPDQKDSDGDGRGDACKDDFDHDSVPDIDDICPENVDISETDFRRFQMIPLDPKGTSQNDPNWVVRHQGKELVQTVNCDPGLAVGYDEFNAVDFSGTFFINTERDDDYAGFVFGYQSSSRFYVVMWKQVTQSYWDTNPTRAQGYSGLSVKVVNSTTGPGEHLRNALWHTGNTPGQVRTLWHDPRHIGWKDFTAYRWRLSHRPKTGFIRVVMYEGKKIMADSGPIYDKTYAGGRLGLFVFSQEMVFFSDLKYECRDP
Procedure: as §1

[11] = target: T5, VN (vitronectin) (Homo sapiens, UniProt P04004); assay: as above
T5 sequence (P04004 20-478): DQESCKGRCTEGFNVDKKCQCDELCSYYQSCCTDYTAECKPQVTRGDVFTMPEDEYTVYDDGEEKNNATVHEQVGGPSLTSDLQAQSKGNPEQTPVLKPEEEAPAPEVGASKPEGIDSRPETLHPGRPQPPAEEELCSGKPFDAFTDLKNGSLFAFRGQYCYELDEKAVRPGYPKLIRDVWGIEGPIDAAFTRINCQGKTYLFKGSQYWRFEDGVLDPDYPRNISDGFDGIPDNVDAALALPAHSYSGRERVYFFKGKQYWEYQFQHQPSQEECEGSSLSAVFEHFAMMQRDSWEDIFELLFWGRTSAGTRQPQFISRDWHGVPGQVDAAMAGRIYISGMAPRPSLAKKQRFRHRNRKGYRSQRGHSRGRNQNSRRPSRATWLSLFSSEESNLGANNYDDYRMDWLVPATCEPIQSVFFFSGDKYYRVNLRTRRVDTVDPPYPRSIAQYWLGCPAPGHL
Procedure: as §1

[12] = test system: angiostatin receptor in tissue sections; assay: Angiostatin staining of tissue sections of metastatic human bone marrow; assay type: binding; conditions: 100 μg/ml rh-angiostatin, anti-angiostatin antibody detection
Procedure: Angiostatin was incubated with tissue sections of metastitic human bone marrow. After washing, the tissue sections were developed with an anti-angiostatin Ab, followed by the corresponding secondary Ab conjugated to peroxidase. […] The staining was specific since only this structure and not other cells were stained.
Anti-human Angiostatin were purchased (R&D Systems: AF226). rhAngiostatin was produced by EntreMed, Inc. (Rockville, Md.). Surgical specimens of human metastases (Bouin-fixed 4-6 h, paraffin-embedded sections, 5-6 μm thick) were adsorbed on polylysine-coated slides. Tissue slides were incubated with 100 μg/ml of rh-angiostatin. The slides were washed 3 times and incubated with anti-angiostatin antibody. The slides were washed again 3 times and bound antibodies were detected using an anti-goat peroxidase-conjugate antibody.

[13] = target: T6, bovine serum albumin (bovine, UniProt P02769 25-607); assay: phage binding assay (FIG. 22)
T6 construct: control protein coated on wells; also called BSA
T6 sequence (P02769 25-607 limits assumed): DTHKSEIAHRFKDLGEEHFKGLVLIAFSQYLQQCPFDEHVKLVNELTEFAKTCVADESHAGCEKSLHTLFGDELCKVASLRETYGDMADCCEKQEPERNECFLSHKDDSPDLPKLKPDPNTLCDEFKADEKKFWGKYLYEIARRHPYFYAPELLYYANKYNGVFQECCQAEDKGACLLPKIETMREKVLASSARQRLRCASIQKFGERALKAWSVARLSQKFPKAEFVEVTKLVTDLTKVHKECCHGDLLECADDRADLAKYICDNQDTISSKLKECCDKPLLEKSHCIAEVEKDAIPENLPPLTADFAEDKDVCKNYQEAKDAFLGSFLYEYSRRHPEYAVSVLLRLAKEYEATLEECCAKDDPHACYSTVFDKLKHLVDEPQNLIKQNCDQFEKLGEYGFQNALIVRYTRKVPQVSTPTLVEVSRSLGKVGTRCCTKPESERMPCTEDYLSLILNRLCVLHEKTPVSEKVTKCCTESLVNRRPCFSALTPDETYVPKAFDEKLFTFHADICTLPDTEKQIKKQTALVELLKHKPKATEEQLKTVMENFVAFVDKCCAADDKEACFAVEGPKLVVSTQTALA

O=c1[nH]cc(F)c(=O)[nH]1 [CARAC peptide, CARAC]
effect on binding of angiostatin to CD13 [1]: unaffected

CDCRGDCFC [RGD4C peptide]
inhibition of RGD-4C-β-gal phage transduction [2]: greater than 99%

CTTHWGFTLC
inhibition of HWGF-β-gal phage transduction [3]: greater than 90%

GST-fusion protein containing peptide C: GST-fusion protein containing peptide C (CNVSDKSC; cysteine pairing not given here; also: fused to GST)
inhibition of anti-peptide C staining [4]: completely inhibited

B1: angiostatin: rh-Angiostatin produced by EntreMed, Inc. (protein)
chain: VYLSECKTGNGKNYRGTMSKTKNGITCQKWSSTSPHRPRFSPATHPSEGLEENYCRNPDNDPQGPWCYTTDPEKRYDYCDILECEEECMHCSGENYDGKISKTMSGLECQAWDSQSPHAHGYIPSKFPNKNLKKNYCRNPDRELRPWCFTTDPNKRWELCDIPRCTTPPPSSGPTYQCLKGTGENYRGNVAVTVSGHTCQHWSAQTPHTHNRTPENFPCKNLDENYCRNPDGKRAPWCHTTNSQVRWEYCKIPSCDSSPV
binding of angiostatin to coated protein [5]: binds
binding of angiostatin to coated protein [6]: not
binding of angiostatin to coated protein [7]: not
binding of angiostatin to coated protein [8]: binds
binding of angiostatin to coated protein [9]: not
binding of angiostatin to coated protein [10]: binds
binding of angiostatin to coated protein [11]: not
staining of tissue sections [12]: vessel-like

CVPELGHEC (cysteine pairing not given here; also: displayed on phage) [phage bearing the sequence CVPELGHEC]
binding result [13]: no binding
